Laboratory results as given in patent publication US20240287154A1, “MC3R AGONIST PEPTIDES” (The Regents of the University of Michigan, priority 2021, published 2024).
Non-standard residues stand in square brackets, D forms with d. d(αMeW) = C[C@@](N)(Cc1c[nH]c2ccccc12)C(=O)O; Phe(4-F) = N[C@@H](Cc1ccc(F)cc1)C(=O)O; Phe(4-I) = N[C@@H](Cc1ccc(I)cc1)C(=O)O; 2Nal = N[C@@H](Cc1ccc2ccccc2c1)C(=O)O; d2Nal = N[C@H](Cc1ccc2ccccc2c1)C(=O)O; NMeH = CN[C@@H](Cc1c[nH]cn1)C(=O)O; dTic = O=C(O)[C@H]1Cc2ccccc2CN1; NMeK = CN[C@@H](CCCCN)C(=O)O; NMeA = CN[C@@H](C)C(=O)O; Nle = CCCC[C@H](N)C(=O)O; dAbu = CC[C@@H](N)C(=O)O; Aib = CC(C)(N)C(=O)O

These binders were tested against human MC3R (human, UniProt P41968 1-323) (assay: cell-based or functional assay).
Chain of human MC3R (P41968 whole entry): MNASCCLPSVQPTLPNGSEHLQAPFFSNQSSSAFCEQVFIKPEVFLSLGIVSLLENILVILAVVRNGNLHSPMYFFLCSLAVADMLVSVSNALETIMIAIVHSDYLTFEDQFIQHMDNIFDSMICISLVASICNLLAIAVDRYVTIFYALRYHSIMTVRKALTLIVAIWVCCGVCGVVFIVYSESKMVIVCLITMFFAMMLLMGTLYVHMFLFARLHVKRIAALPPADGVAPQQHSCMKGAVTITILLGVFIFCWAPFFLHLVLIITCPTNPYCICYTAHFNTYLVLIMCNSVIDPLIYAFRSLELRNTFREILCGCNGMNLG

Binder	MC3R cAMP (EC50) [nM]	MC3R selectivity (relative to MC4R)
Ac-[Nle][dA]HFK[dW]DRFG-OH (SMILES CCCC[C@H](NC(C)=O)C(=O)N[C@H](C)C(=O)N[C@@H](Cc1c[nH]cn1)C(=O)N[C@@H](Cc1ccccc1)C(=O)N[C@@H](CCCCN)C(=O)N[C@H](Cc1c[nH]c2ccccc12)C(=O)N[C@@H](CC(=O)O)C(=O)N[C@@H](CCCNC(=N)N)C(=O)N[C@@H](Cc1ccccc1)C(=O)NCC(=O)O) [CTX-1523]	41.7	5320
Ac-[Nle][dA]HFR[dW]ARFG-OH (SMILES CCCC[C@H](NC(C)=O)C(=O)N[C@H](C)C(=O)N[C@@H](Cc1c[nH]cn1)C(=O)N[C@@H](Cc1ccccc1)C(=O)N[C@@H](CCCNC(=N)N)C(=O)N[C@H](Cc1c[nH]c2ccccc12)C(=O)N[C@@H](C)C(=O)N[C@@H](CCCNC(=N)N)C(=O)N[C@@H](Cc1ccccc1)C(=O)NCC(=O)O) [CTX-1528]	1.9	182
Ac-[Nle][dA]HFR[d(αMeW)]DRFG-OH (SMILES CCCC[C@H](NC(C)=O)C(=O)N[C@H](C)C(=O)N[C@@H](Cc1c[nH]cn1)C(=O)N[C@@H](Cc1ccccc1)C(=O)N[C@@H](CCCNC(=N)N)C(=O)N[C@](C)(Cc1c[nH]c2ccccc12)C(=O)N[C@@H](CC(=O)O)C(=O)N[C@@H](CCCNC(=N)N)C(=O)N[C@@H](Cc1ccccc1)C(=O)NCC(=O)O) [CTX-1510]	181	23
Ac-[Nle][dA][NMeK]FR[dW]DRFG-OH (SMILES CCCC[C@H](NC(C)=O)C(=O)N[C@H](C)C(=O)N(C)[C@@H](CCCCN)C(=O)N[C@@H](Cc1ccccc1)C(=O)N[C@@H](CCCNC(=N)N)C(=O)N[C@H](Cc1c[nH]c2ccccc12)C(=O)N[C@@H](CC(=O)O)C(=O)N[C@@H](CCCNC(=N)N)C(=O)N[C@@H](Cc1ccccc1)C(=O)NCC(=O)O) [CTX-1189]	3540	1
YVXXHFRWDRFG (Nle at 3; D-Abu at 4; D-Trp at 8) [CTX-1135]	1	667
Ac-YVE[Aib]H[Phe(4-I)]R[dW]DRFG-OH (SMILES CC(=O)N[C@@H](Cc1ccc(O)cc1)C(=O)N[C@H](C(=O)N[C@@H](CCC(=O)O)C(=O)NC(C)(C)C(=O)N[C@@H](Cc1c[nH]cn1)C(=O)N[C@@H](Cc1ccc(I)cc1)C(=O)N[C@@H](CCCNC(=N)N)C(=O)N[C@H](Cc1c[nH]c2ccccc12)C(=O)N[C@@H](CC(=O)O)C(=O)N[C@@H](CCCNC(=N)N)C(=O)N[C@@H](Cc1ccccc1)C(=O)NCC(=O)O)C(C)C) [CTX-1195]	184	51
Ac-[Nle][dA]H[Phe(4-I)]R[d2Nal]DRFG-OH (SMILES CCCC[C@H](NC(C)=O)C(=O)N[C@H](C)C(=O)N[C@@H](Cc1c[nH]cn1)C(=O)N[C@@H](Cc1ccc(I)cc1)C(=O)N[C@@H](CCCNC(=N)N)C(=O)N[C@H](Cc1ccc2ccccc2c1)C(=O)N[C@@H](CC(=O)O)C(=O)N[C@@H](CCCNC(=N)N)C(=O)N[C@@H](Cc1ccccc1)C(=O)NCC(=O)O) [CTX-1502]	6.7	184
Ac-[Nle][dA]H[Phe(4-F)]R[dW]DRFG-OH (SMILES CCCC[C@H](NC(C)=O)C(=O)N[C@H](C)C(=O)N[C@@H](Cc1c[nH]cn1)C(=O)N[C@@H](Cc1ccc(F)cc1)C(=O)N[C@@H](CCCNC(=N)N)C(=O)N[C@H](Cc1c[nH]c2ccccc12)C(=O)N[C@@H](CC(=O)O)C(=O)N[C@@H](CCCNC(=N)N)C(=O)N[C@@H](Cc1ccccc1)C(=O)NCC(=O)O) [CTX-1518]	1.9	1560
Ac-YVE[dAbu]H[Phe(4-I)]R[dW]DRFG-OH (SMILES CC[C@@H](NC(=O)[C@H](CCC(=O)O)NC(=O)[C@@H](NC(=O)[C@H](Cc1ccc(O)cc1)NC(C)=O)C(C)C)C(=O)N[C@@H](Cc1c[nH]cn1)C(=O)N[C@@H](Cc1ccc(I)cc1)C(=O)N[C@@H](CCCNC(=N)N)C(=O)N[C@H](Cc1c[nH]c2ccccc12)C(=O)N[C@@H](CC(=O)O)C(=O)N[C@@H](CCCNC(=N)N)C(=O)N[C@@H](Cc1ccccc1)C(=O)NCC(=O)O) [CTX-1194]	34.3	49
Ac-[Nle][dA]H[2Nal]R[dW]DRFG-OH (SMILES CCCC[C@H](NC(C)=O)C(=O)N[C@H](C)C(=O)N[C@@H](Cc1c[nH]cn1)C(=O)N[C@@H](Cc1ccc2ccccc2c1)C(=O)N[C@@H](CCCNC(=N)N)C(=O)N[C@H](Cc1c[nH]c2ccccc12)C(=O)N[C@@H](CC(=O)O)C(=O)N[C@@H](CCCNC(=N)N)C(=O)N[C@@H](Cc1ccccc1)C(=O)NCC(=O)O) [CTX-1512]	13.1	804
Ac-[Nle][dAbu]H[Phe(4-I)]R[dW]DRFG-OH (SMILES CCCC[C@H](NC(C)=O)C(=O)N[C@H](CC)C(=O)N[C@@H](Cc1c[nH]cn1)C(=O)N[C@@H](Cc1ccc(I)cc1)C(=O)N[C@@H](CCCNC(=N)N)C(=O)N[C@H](Cc1c[nH]c2ccccc12)C(=O)N[C@@H](CC(=O)O)C(=O)N[C@@H](CCCNC(=N)N)C(=O)N[C@@H](Cc1ccccc1)C(=O)NCC(=O)O) [CTX-1191]	3.9	470
Ac-[Nle][dA]H[Phe(4-I)]R[dF]DRFG-OH (SMILES CCCC[C@H](NC(C)=O)C(=O)N[C@H](C)C(=O)N[C@@H](Cc1c[nH]cn1)C(=O)N[C@@H](Cc1ccc(I)cc1)C(=O)N[C@@H](CCCNC(=N)N)C(=O)N[C@H](Cc1ccccc1)C(=O)N[C@@H](CC(=O)O)C(=O)N[C@@H](CCCNC(=N)N)C(=O)N[C@@H](Cc1ccccc1)C(=O)NCC(=O)O) [CTX-1503]	124	214
Ac-[Nle][dA][NMeA]FR[dW]DRFG-OH (SMILES CCCC[C@H](NC(C)=O)C(=O)N[C@H](C)C(=O)N(C)[C@@H](C)C(=O)N[C@@H](Cc1ccccc1)C(=O)N[C@@H](CCCNC(=N)N)C(=O)N[C@H](Cc1c[nH]c2ccccc12)C(=O)N[C@@H](CC(=O)O)C(=O)N[C@@H](CCCNC(=N)N)C(=O)N[C@@H](Cc1ccccc1)C(=O)NCC(=O)O) [CTX-1190]	3920	–
Ac-[Nle][dA][NMeH]FR[dW]DRFG-OH (SMILES CCCC[C@H](NC(C)=O)C(=O)N[C@H](C)C(=O)N(C)[C@@H](Cc1c[nH]cn1)C(=O)N[C@@H](Cc1ccccc1)C(=O)N[C@@H](CCCNC(=N)N)C(=O)N[C@H](Cc1c[nH]c2ccccc12)C(=O)N[C@@H](CC(=O)O)C(=O)N[C@@H](CCCNC(=N)N)C(=O)N[C@@H](Cc1ccccc1)C(=O)NCC(=O)O) [CTX-1186]	200	1880
H-YV[Nle]AHFR[dW]D-NH2 (SMILES CCCC[C@H](NC(=O)[C@@H](NC(=O)[C@@H](N)Cc1ccc(O)cc1)C(C)C)C(=O)N[C@@H](C)C(=O)N[C@@H](Cc1c[nH]cn1)C(=O)N[C@@H](Cc1ccccc1)C(=O)N[C@@H](CCCNC(=N)N)C(=O)N[C@H](Cc1c[nH]c2ccccc12)C(=O)N[C@@H](CC(=O)O)C(N)=O) [CTX-1129]	1.2	7.5
Ac-[Nle][dA]P[Phe(4-I)]R[dF]DRFG-OH (SMILES CCCC[C@H](NC(C)=O)C(=O)N[C@H](C)C(=O)N1CCC[C@H]1C(=O)N[C@@H](Cc1ccc(I)cc1)C(=O)N[C@@H](CCCNC(=N)N)C(=O)N[C@H](Cc1ccccc1)C(=O)N[C@@H](CC(=O)O)C(=O)N[C@@H](CCCNC(=N)N)C(=O)N[C@@H](Cc1ccccc1)C(=O)NCC(=O)O) [CTX-1506]	–	1
Ac-[Nle][dA]H[Phe(4-I)][dR]WDRFG-OH (SMILES CCCC[C@H](NC(C)=O)C(=O)N[C@H](C)C(=O)N[C@@H](Cc1c[nH]cn1)C(=O)N[C@@H](Cc1ccc(I)cc1)C(=O)N[C@H](CCCNC(=N)N)C(=O)N[C@@H](Cc1c[nH]c2ccccc12)C(=O)N[C@@H](CC(=O)O)C(=O)N[C@@H](CCCNC(=N)N)C(=O)N[C@@H](Cc1ccccc1)C(=O)NCC(=O)O) [CTX-1501]	2800	0.01
Ac-[Nle][dA]H[Phe(4-I)]R[dTic]DRFG-OH [CTX-1504]	–	1
Ac-[Nle][dA]R[Phe(4-I)]R[dW]DRFG-OH (SMILES CCCC[C@H](NC(C)=O)C(=O)N[C@H](C)C(=O)N[C@@H](CCCNC(=N)N)C(=O)N[C@@H](Cc1ccc(I)cc1)C(=O)N[C@@H](CCCNC(=N)N)C(=O)N[C@H](Cc1c[nH]c2ccccc12)C(=O)N[C@@H](CC(=O)O)C(=O)N[C@@H](CCCNC(=N)N)C(=O)N[C@@H](Cc1ccccc1)C(=O)NCC(=O)O) [CTX-1197]	13.5	250
